Article PMC4534038, “Plasmodium falciparum Hop (PfHop) Interacts with the Hsp70 Chaperone in a Nucleotide-Dependent Fashion and Exhibits Ligand Selectivity” (PLoS ONE, 2015)

T1: Plasmodium falciparum Hsp70-Hsp90 organising protein (PfHop) (Plasmodium falciparum), Q8ILC1
T1 chain: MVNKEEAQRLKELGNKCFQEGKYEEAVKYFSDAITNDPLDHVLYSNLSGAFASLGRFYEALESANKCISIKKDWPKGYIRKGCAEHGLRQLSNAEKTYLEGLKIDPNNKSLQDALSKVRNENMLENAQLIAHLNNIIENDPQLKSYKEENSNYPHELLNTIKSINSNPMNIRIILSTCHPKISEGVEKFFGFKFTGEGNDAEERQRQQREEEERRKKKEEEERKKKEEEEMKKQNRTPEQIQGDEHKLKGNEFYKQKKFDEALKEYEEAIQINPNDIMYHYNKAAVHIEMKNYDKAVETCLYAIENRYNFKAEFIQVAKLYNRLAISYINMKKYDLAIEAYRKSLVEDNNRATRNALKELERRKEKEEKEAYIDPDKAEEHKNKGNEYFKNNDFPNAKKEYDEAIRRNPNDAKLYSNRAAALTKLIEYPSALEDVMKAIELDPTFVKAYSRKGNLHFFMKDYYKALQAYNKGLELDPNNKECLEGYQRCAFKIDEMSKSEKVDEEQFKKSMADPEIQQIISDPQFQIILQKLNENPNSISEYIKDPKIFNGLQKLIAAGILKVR


Key:
[1] = biological target: T1, Plasmodium falciparum Hsp70-Hsp90 …; assay: SPR; ProteOn XPR36, GLC chip; PfHop immobilised by amine coupling, PfHop as analyte (125-2000 nM); self-association, step not told; 25 C; PBS-Tween with 20 mM EDTA, pH 7.4; with 5 mM ADP; conditions: remark: other sources report otherwise
[2] = biological target: T1, Plasmodium falciparum Hsp70-Hsp90 …; assay: SPR; ProteOn XPR36, GLC chip; PfHop immobilised by amine coupling, PfHop as analyte (125-2000 nM); self-association, step not told; 25 C; PBS-Tween with 20 mM EDTA, pH 7.4; with 5 mM ATP; conditions: remark: other sources report otherwise
[3] = biological target: T1, Plasmodium falciparum Hsp70-Hsp90 …; assay: SPR; ProteOn XPR36, GLC chip; PfHop immobilised by amine coupling, PfHop as analyte (125-2000 nM); self-association, step not told; 25 C; PBS-Tween with 20 mM EDTA, pH 7.4; no nucleotide; conditions: remark: other sources report otherwise
[4] = biological target: Plasmodium falciparum Hsp70 (PfHsp70-1), full length, recombinant, his-tagged (Plasmodium falciparum, UniProt Q8IB24 1-677); assay: far-Western, overlay or dot blot; PfHsp70-1 (25, 37.5, 50 μg/mL) resolved by SDS-PAGE, blotted, denatured and renatured with urea (8 M-0 M); overlaid with PfHop in protein-binding buffer (100 mM NaCl, 20 mM Tris pH 7.6, 0.5 mM EDTA, 10% glycerol, 0.1% Tween-20, 2% skim milk, 1 mM DTT) overnight at 4°C; no nucleotide, 5 μM ADP or 5 μM ATP; detected with α-PfHop; conditions: both partners purified

| Binder | Kd [1] [nM] | koff [1] [s⁻¹] | kon [1] [M⁻¹ s⁻¹] | Kd [2] [nM] | koff [2] [s⁻¹] | kon [2] [M⁻¹ s⁻¹] | Kd [3] [nM] | koff [3] [s⁻¹] | kon [3] [M⁻¹ s⁻¹] | binding result [4] |
| --- | --- | --- | --- | --- | --- | --- | --- | --- | --- | --- |
| Plasmodium falciparum Hsp70-Hsp90 organising protein (PfHop), Q8ILC1 1-564 (natural protein) MVNKEEAQRLKELGNKCFQEGKYEEAVKYFSDAITNDPLDHVLYSNLSGAFASLGRFYEALESANKCISIKKDWPKGYIRKGCAEHGLRQLSNAEKTYLEGLKIDPNNKSLQDALSKVRNENMLENAQLIAHLNNIIENDPQLKSYKEENSNYPHELLNTIKSINSNPMNIRIILSTCHPKISEGVEKFFGFKFTGEGNDAEERQRQQREEEERRKKKEEEERKKKEEEEMKKQNRTPEQIQGDEHKLKGNEFYKQKKFDEALKEYEEAIQINPNDIMYHYNKAAVHIEMKNYDKAVETCLYAIENRYNFKAEFIQVAKLYNRLAISYINMKKYDLAIEAYRKSLVEDNNRATRNALKELERRKEKEEKEAYIDPDKAEEHKNKGNEYFKNNDFPNAKKEYDEAIRRNPNDAKLYSNRAAALTKLIEYPSALEDVMKAIELDPTFVKAYSRKGNLHFFMKDYYKALQAYNKGLELDPNNKECLEGYQRCAFKIDEMSKSEKVDEEQFKKSMADPEIQQIISDPQFQIILQKLNENPNSISEYIKDPKIFNGLQKLIAAGILKVR | 7.85 | 0.000464 | 59100 | 5.18 | 0.000329 | 63500 | 1.57 | 0.000359 | 228000 |  |
| Plasmodium falciparum Hsp70-Hsp90 organising protein (PfHop), recombinant, his-tagged (natural protein, UniProt Q8ILC1 1-564, looked up) MVNKEEAQRLKELGNKCFQEGKYEEAVKYFSDAITNDPLDHVLYSNLSGAFASLGRFYEALESANKCISIKKDWPKGYIRKGCAEHGLRQLSNAEKTYLEGLKIDPNNKSLQDALSKVRNENMLENAQLIAHLNNIIENDPQLKSYKEENSNYPHELLNTIKSINSNPMNIRIILSTCHPKISEGVEKFFGFKFTGEGNDAEERQRQQREEEERRKKKEEEERKKKEEEEMKKQNRTPEQIQGDEHKLKGNEFYKQKKFDEALKEYEEAIQINPNDIMYHYNKAAVHIEMKNYDKAVETCLYAIENRYNFKAEFIQVAKLYNRLAISYINMKKYDLAIEAYRKSLVEDNNRATRNALKELERRKEKEEKEAYIDPDKAEEHKNKGNEYFKNNDFPNAKKEYDEAIRRNPNDAKLYSNRAAALTKLIEYPSALEDVMKAIELDPTFVKAYSRKGNLHFFMKDYYKALQAYNKGLELDPNNKECLEGYQRCAFKIDEMSKSEKVDEEQFKKSMADPEIQQIISDPQFQIILQKLNENPNSISEYIKDPKIFNGLQKLIAAGILKVR |  |  |  |  |  |  |  |  |  | binds |
